A short description of the data set: Blue native PAGE of the peptide hydrated in 1×PBS (self-assembly). Conditions: dissolved in 1×PBS, 5 min at room temperature, Blue NativePAGE Bis-Tris gel. The data set is classed as physicochemical. How it is done:
The peptide (SEQ ID NO: 15) was synthesized by SPPS and lyophilized for storage. The peptide was dissolved in 1×PBS and then loaded onto a blue native PAGE gel and size fractionated by electrophoresis through a 4-16% acrylamide gradient gel for 90 min at 150 V (constant). The gel was fixed in methanol:acetic acid:water and then rinsed in the same solution to destain. Lane 1 is BSA as a reference protein, and Lane 2 is the self-assembled hexamer. MW standards (which are not shown) are on the right. BSA is 66 kDa and the hexamer has an expected size of 20.7 kDa.
Experiments were performed to confirm that a hexamer forms following hydration of the monomer, elucidate the solubility of epitope coupled hexamers, determine the maximum density of epitope coupling, and confirm that a hexameric structure is maintained following coupling of the epitope. A representative peptide, SEQ ID NO: 15, was synthesized using the protocols previously described. A methionine and aspartic acid residue were placed on the N-terminus, and the methionine residue was protected by acetylation to form Acetyl-MD-(SEQ ID NO: 15). Following SPPS, the peptide was lyophilized for storage. To show self-assembly, the peptide was dissolved in 1×PBS buffer, incubated at room temperature for 5 min, and loaded onto a Blue NativePAGE Novex Bis-Tris Gel using the system purchased from Life Technologies. […]

One sequence from patent US12458692B2, “Self-assembling peptide scaffold” (Hexamer Therapeutics, Inc., priority 2018, dated 2025) can be followed below.

Where no end group is shown, it is not given here.

For the sequence “LRSIGKDLRSIGRDLRSIGKDLRSIGRD (Ac-MDLRSIGKDLRSIGRDLRSIGKDLRSIGRD; also: hexamer) [Acetyl-MD-(SEQ ID NO: 15), Representative self-assembling peptide made by SPPS; forms the hexamer on hydration]”, the “higher order structures or aggregates” value is “no detectable higher order structures or aggregates”. The “oligomeric state after hydration (self-assembly)” value (expected hexamer size 20.7 kDa) is “self-assembly of the hexamer”.
